According to the nanobody polyreactivity screen of Harvey et al. (2022):

Experiment: yeast display, Sf9 membrane polyspecificity reagent, FACS + sequencing; frameworks hold sequencing errors
How it was run: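 A nanobody's polyreactivity label depends on the gate it was sorted from. Yeast display cells were stained with 10% biotinylated, detergent-solubilized Sf9 membrane reagent for 1 hour at 4 °C, enriched on streptavidin microbeads and sorted by FACS. The low and high (top ~1%) gates were set on anti-HA fluorescence for expression and streptavidin fluorescence for reagent binding.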

| Sequence | polyreactivity (PSR sort gate) |
| --- | --- |
| QVQLVESGGGLVQAGGSLSLSCAASGSTFSIYTMGWYRQAPGKERELVAVITKSGGSTYYADSVKGRFTISRDNAKNTVYLQMNSLKPEDTAVYYCAARRRGARHDYWGQGTQVTVSS | high polyreactivity |
| QVQLVESGGGLFKAGGSLRLSSAASGSIFQNYDMGWYRQAPGNERELVAAISSSGDTYYADSVKGRFTISLDNAKNTVYLQMNSLKPEDTAVYYCAATYPYSLYYPYYGGDYDYWGQGTQVTVSS | low polyreactivity |
| QVQLVESGGGLVQAGGSLRLSCAASGFIFYPNAMGWYRQAPGKERELVAAISSSTGSTYYADSVKGRFTISRDNAKNTVYLQMNSLNRVDTAGYYCAADLEYYPIGGDLQEREYWGQGTQVTVSS | low polyreactivity |
| QVQLVESGGGLVQARGSLRLSCAASGFIYRYNVMGWYRQAPGKERELVAAISTSGGRTYYADSVKGRFTISRDNAKITVYLQMNSLKPEDTAVYYCIAVISEVHKVRDGFYWGQGSQVTVSS | high polyreactivity |
| QVQLVESGGGLVQEGGSHSLSCAASGRTFKYKAMGWSRPAPGKERELVASISGSGGRTYYADSVKGRFTISRDIAKNSVFLQMYRLNPEDTAVYFCNATRVKWLDWGQGTQVTVSS | high polyreactivity |
| QVHLVESGGGLVQAGGSLRLSGAASGSTFLEYARGWYRQAPGKERELVADISSGGGTHYADSVKGRFTISRDNAKNTVYLQMNSLKPDDTAVYYCNRDISGSSGGELDYWGQGSQVTVSS | low polyreactivity |
| QVQLVESGGGLVQAGGSLRLSCAASGRIFTSYTMGWYRQAPGKERELVAAIDWSGGTTYYADSVKGRFTISRDNAKNTVYLQMNSLKPEDTAVYYCAALYVKVGYYTYEYWGQGTQVTVSS | low polyreactivity |
| QVQLVESGGGLVQAGGSLRLSCAASGRIFAVNALGWYRQAPGPERELVATIRGSGTSTYYADSVKGRFTISRDHATNTVYLQMNSLKPEDTAVYYCAKAYNGRYTWRYDYWGQGTQVTVSS | high polyreactivity |
| QVQLVESGGGLVQAGGSLRLSCAASGFIFGIYAMGWYRQAPGNEWEFVAAITGSAGSTYYADSVKGRFTISRDNAKNTVYLQMNSLKPEDTAVYYCATDVLPRKYDSDYPSGAYDYWGQGTQVTVSS | low polyreactivity |
| QVQLVESGGGLVQAGGSLRLSCAASGFIFWIYAMGWYRQAPGKEREFVAVITYRGDTSYYADSVKGRFTISRDNAKNTVYLQMNSLKPEDTAVYYCAAYTVQKYGYWGQGTQVTVSS | low polyreactivity |
| QVQLEESGGGLVQAGGSLRLSCAASGRTFLEYVMGWYRQAPGKERELVAVISWSTGSTYADSVKGRFTISRDNAKNTVYLQMNSLKPEDTAVYYCARRVQSLGNVVIYNYWGQGTQVTVSS | low polyreactivity |
| QVQLVESGGGLVQAGGSLRLSCAASGSTFHYYAMGWYRQAPGKERELVAAINSGARTYYADSVKGRFTISRDNAKNTVYLQMNSLKPEDTAVYYCAKDYTYSFGRSLDYWGQGTQVTVSS | low polyreactivity |
| QVQLVESGVGLVQAGGSLRVSCAASGSTIPIYAMGWYRQAPGKERELVAVISRSGGITYYADSVKGRFTISRDNAKNTVYLQMNSLKPEDTAVYYCNARTRGWTPDRGYWGQGTQVTVSS | high polyreactivity |
| QVQLVESGGGLVQAGGSLRLSCAASGSNFAVYAMGWYRQAPGKERELVAAISFSGGSTYYADSVKGRFTISRDNAKNTVYLQMNSLKPEDTAVYYCAADPWWTRTDLDYWGQGTQVTVSS | low polyreactivity |
| QVQLVESGGGLVQAGGSLRLSCAATGRTFGYSPMGSYRPAPGKERELVAAISRRGGSTYYADSVKGRFIISRDNAKNTVYLQMNSLKPEDTAVYYCAKGHQWGLKGGYDYWGQGTQVTVSS | high polyreactivity |
| QVQLVESGGGLVQAGGSLRLSCAASGSTFIPNTMGWYRQEPGKERELVAAISRRGGSTNYADSVKGRFTISRDNAKYTVYLQMNSLKPEDTAVYYCAAVSPRRYRYDYWGQGTQVTVSS | low polyreactivity |
| QVQLQVSGGDLVQAGGSLRLSCAASGTINGLTSMGWYRQAPGKEREFVAAITDGGYTNYADSVKGRFTISRDNAKNTVYLQMISLKPEDTAVYYCAVLFSDDAYYAYWGQGTQVTVSS | low polyreactivity |
